The values that follow come from US20240002528A1 (University of Texas, published 2024).

The target of assay [1] is T1, full-length human cystinosin-LKG with a C-terminal Flag tag (human, UniProt O60931-2 23-400, limits assumed).
T1 construct: Expressed in HEK-293S GnTI- cells and purified in DDM then digitonin; It was reconstituted in amphipols for immunisation; also called recombinant human Cystinosin; wild-type (WT) human Cystinosin; not shown: C-terminal Flag tag
T1 sequence (looked up): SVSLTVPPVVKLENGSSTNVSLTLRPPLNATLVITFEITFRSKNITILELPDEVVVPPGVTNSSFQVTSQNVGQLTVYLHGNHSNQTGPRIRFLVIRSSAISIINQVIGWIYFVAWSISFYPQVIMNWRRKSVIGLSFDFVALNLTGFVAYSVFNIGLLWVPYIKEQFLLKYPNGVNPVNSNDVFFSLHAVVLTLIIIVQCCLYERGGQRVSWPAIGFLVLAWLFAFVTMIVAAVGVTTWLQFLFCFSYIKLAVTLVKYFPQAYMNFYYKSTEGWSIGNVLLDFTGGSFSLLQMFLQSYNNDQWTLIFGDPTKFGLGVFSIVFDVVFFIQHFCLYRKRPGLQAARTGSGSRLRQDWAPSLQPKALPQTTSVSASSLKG
The experiment in a line: size-exclusion chromatography (gel filtration) of Cystinosin incubated with Fab3H5 at a 1:1.5 molar ratio, with a polyacrylamide gel of the peak fraction; the sheet is marked pH7.0. As for the experimental part: To assemble Cystinosin-Fab^3H5 complex, purified Cystinosin was incubated with Fab^3H5 at a 1:1.5 molar ratio at 4° C. for 30 minutes. The mixture was then purified by SEC using the aforementioned buffer (FIG. 1A). Peak fractions were collected and concentrated to […]. The isolated complex was then used for functional and structural studies. In particular the complex was used in Cryo-EM studies.

Assay [2] concerns the target T1, full-length human cystinosin-LKG with a …. Description: ELISA and immunoprecipitation screen of hybridoma supernatants; ELISA and immunoprecipitation screen of hybridoma clone (folded cystinosin). For orientation: ELISA stands for enzyme-linked immunosorbent assay.

B1: Fab3H5 (Fab fragment of IgG-3H5 generated by papain cleavage) (Fab, V domains shown)
VH: EVMLVESGGGLVKPGGSLKLSCAASGFTFSNYAMSWVRQTPEKRLEWVAAISGNEGTYTYYPDSVRGRFTISRDNARNNLYLQISSLRSEDTALYYCARYGLVGALDFWGQGAS
VL: DIQMNQSPSTLSASLGDTITITCRASQNIDVWLNWYQQKPGDIPKLLIYEASNLHTGVPSRFSGSGSGTDFTLAISSLQPEDIATYYCLQGQDYPFTFGSGTK
notes: The reaction was stopped with iodoacetamide
With B1, the binding result in assay [1] was “binds”.

B2: IgG-3H5, a mouse monoclonal anti-human Cystinosin antibody (antibody, V domains shown)
VH: EVMLVESGGGLVKPGGSLKLSCAASGFTFSNYAMSWVRQTPEKRLEWVAAISGNEGTYTYYPDSVRGRFTISRDNARNNLYLQISSLRSEDTALYYCARYGLVGALDFWGQGAS
VL: DIQMNQSPSTLSASLGDTITITCRASQNIDVWLNWYQQKPGDIPKLLIYEASNLHTGVPSRFSGSGSGTDFTLAISSLQPEDIATYYCLQGQDYPFTFGSGTK
notes: also called 3H5 antibody; monoclonal antibody 3H5
As for B2, the binding result in assay [2] was “binds”.
